Tests used:
Experiment in all cases: cell-based or functional assay
PLCβ3 ΔXY1 = molecular target: T1, PLCβ3 ΔXY1 (Homo sapiens, UniProt Q01970 10-1234, ΔXY1 (residues 471–569))
T1 sequence (looked up): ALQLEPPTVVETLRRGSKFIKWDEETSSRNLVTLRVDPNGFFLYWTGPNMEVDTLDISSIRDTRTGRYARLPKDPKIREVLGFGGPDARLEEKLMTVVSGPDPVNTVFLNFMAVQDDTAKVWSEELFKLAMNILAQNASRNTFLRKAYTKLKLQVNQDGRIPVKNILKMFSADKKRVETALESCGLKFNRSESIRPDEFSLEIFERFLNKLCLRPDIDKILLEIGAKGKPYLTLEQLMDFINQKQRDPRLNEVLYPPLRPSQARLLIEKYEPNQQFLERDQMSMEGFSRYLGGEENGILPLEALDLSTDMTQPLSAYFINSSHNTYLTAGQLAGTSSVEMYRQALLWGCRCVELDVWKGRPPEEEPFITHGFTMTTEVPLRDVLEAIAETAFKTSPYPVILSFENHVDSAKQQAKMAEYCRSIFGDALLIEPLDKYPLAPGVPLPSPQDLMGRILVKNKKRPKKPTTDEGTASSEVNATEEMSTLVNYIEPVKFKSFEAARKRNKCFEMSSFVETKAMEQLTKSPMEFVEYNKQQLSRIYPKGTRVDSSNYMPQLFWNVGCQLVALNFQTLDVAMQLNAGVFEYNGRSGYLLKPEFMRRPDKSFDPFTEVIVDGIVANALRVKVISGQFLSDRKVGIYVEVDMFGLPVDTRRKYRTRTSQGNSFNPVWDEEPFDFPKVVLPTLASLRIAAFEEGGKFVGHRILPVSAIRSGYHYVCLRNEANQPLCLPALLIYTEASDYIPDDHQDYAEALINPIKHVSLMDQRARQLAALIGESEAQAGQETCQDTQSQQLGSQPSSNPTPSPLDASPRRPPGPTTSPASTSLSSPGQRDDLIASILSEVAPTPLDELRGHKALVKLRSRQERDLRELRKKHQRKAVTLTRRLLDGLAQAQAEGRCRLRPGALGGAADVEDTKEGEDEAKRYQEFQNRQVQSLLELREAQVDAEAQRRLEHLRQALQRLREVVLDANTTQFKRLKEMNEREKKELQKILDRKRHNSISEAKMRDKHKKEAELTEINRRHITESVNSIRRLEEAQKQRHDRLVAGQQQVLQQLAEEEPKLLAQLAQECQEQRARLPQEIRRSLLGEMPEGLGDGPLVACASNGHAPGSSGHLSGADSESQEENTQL

PLCβ3 ΔXY2 = molecular target: T2, PLCβ3 ΔXY2 (Homo sapiens, UniProt Q01970 10-1234, ΔXY2 (residues 471–584))
T2 sequence (looked up): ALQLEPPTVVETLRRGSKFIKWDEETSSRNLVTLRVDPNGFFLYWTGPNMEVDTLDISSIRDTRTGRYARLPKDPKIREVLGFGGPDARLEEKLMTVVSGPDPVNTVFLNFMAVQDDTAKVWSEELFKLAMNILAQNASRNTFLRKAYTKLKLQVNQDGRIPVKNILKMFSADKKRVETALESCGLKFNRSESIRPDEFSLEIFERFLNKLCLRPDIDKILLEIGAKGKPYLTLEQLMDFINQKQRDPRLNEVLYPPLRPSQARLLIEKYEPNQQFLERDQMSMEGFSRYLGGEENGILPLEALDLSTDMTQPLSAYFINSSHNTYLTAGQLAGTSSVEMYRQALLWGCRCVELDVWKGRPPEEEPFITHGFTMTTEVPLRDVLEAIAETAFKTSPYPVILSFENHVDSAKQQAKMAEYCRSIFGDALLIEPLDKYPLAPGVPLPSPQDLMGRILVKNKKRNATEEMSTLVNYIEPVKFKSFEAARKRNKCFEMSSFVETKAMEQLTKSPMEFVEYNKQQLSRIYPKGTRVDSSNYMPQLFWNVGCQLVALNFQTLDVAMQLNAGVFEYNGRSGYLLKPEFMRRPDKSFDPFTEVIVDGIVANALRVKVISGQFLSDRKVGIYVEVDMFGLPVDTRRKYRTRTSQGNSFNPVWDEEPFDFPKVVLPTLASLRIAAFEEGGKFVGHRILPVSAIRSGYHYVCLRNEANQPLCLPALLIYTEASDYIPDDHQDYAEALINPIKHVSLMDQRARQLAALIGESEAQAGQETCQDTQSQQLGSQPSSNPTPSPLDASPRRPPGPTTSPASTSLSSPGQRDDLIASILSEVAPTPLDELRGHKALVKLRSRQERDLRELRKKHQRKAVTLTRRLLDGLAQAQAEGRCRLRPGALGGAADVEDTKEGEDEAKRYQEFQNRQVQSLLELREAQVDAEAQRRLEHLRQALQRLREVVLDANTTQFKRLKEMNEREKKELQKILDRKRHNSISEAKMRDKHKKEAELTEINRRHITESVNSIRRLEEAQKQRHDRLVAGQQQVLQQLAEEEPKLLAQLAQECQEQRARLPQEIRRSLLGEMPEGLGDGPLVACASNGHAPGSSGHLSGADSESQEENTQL

PLCβ3-Δ892 ΔXY2 = molecular target: T3, PLCβ3-Δ892 ΔXY2 (Homo sapiens, UniProt Q01970 10-892, ΔXY2 (residues 471–584))
T3 sequence (looked up): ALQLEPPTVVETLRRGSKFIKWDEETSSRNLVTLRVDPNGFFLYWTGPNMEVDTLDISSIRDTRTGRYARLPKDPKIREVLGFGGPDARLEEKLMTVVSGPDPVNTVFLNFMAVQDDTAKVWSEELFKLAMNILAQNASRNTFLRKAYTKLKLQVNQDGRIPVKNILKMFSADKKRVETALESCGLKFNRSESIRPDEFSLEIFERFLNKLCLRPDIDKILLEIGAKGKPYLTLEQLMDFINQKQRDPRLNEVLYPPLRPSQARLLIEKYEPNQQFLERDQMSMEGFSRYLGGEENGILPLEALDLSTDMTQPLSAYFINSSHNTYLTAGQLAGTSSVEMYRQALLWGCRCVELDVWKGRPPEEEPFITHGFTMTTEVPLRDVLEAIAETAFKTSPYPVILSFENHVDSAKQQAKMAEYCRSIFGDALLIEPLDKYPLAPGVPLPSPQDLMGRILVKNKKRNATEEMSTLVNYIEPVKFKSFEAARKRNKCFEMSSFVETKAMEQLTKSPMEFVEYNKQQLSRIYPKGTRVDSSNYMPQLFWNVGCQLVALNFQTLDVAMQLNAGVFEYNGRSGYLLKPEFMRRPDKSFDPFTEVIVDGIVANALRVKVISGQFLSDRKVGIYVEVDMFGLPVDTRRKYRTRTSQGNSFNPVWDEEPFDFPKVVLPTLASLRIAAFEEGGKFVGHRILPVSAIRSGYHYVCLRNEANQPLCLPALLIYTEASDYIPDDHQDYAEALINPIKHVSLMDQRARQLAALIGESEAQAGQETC

x-fold maximum activity over basal (complex against the PLCβ3 variant alone) (PLCβ3 ΔXY1): 4 x-fold
x-fold maximum activity over basal (complex against the PLCβ3 variant alone) (PLCβ3 ΔXY2): 2 x-fold
x-fold maximum activity over basal (complex against the PLCβ3 variant alone) (PLCβ3-Δ892 ΔXY2): 3 x-fold
B1: Activated Gαq (Gαq·GDP-ALF4^−) (natural protein, murine, UniProt P21279 7-359, looked up)
chain: MACCLSEEAKEARRINDEIERQLRRDKRDARRELKLLLLGTGESGKSTFIKQMRIIHGSGYSDEDKRGFTKLVYQNIFTAMQAMIRAMDTLKIPYKYEHNKAHAQLVREVDVEKVSAFENPYVDAIKSLWNDPGIQECYDRRREYQLSDSTKYYLNDLDRVADPSYLPTQQDVLRVRVPTTGIIEYPFDLQSVIFRMVDVGGQRSERRKWIHCFENVTSIMFLVALSEYDQVLVESDNENRMEESKALFRTIITYPWFQNSSVILFLNKKDLLEEKIMYSHLVDYFPEYDGPQRDAQAAREFILKMFVDLNPDSDKIIYSHFTCATDTENIRFVFAAVKDTILQLNLKEYNLV
